Assay: soluble on expression in E. coli; label from the status in PepcDB or PDB records
In the case of “MGSDKIHHHHHHMQKRNELPGHLAVAPFTLDSARASGVSRARLRRKDVVHVGRGLYRPSDWNFELEAAARALSTASPGAWISHVTAARLHCQLLPPWLADSTELHLSKPRALPSVRRSGVIGHTVVALEDEIESIDGLRVSTRSRTWLDLARRLPVSDLVCMGDQLIRVPRVAFEGRTRPYDTLDGLRTLVGRHPNLQGVVRAREALHLMRVGADSAPESLLRLAMADAGLPEPELQLALRPTDAVSPTADLGYRHRRLAIQYDGEHHLLDAQIFSDRRRDKAFESAGWTVLILGKDDLADGCRPAVSKIKRLLRTAWLDHPQASGFADAG”, the “soluble on expression in E. coli” value is reported as “not soluble”. In the case of “MGSDKIHHHHHHMRIMPINSFENYPMSWKPSIDKAEKPIYKALAGQLEQDILNGVLLPGTKLPPQRELADYLDLNVSTISKAFKVCELKGLLSATVGSGTFVSYDALSNAYLLEDTKPTHLIEMGAILPDHASYEPLLYQLKNMVHEEDYEKWFSYGRAGESLWQKDAAVKLIQRGGFETSVDHILFANGGQNAIAATLASLCKPGDRIGVDHHTYPGLKTVASLLSVQIVPIKSENDEMSPESLEYACKNENIKGLYLIPDYHNPTTSFMSVENRRMVADIVKKYNLFVIEDASYHLLNKNPLPALASFAPQQVIHIASLSKSLAPGLRLAYVAVPRQYKEPISKALYNLNITVSPLLAELTARTIVSNQFEVLIESHREQTIRRNQLVNRYVAGYTCLGVETGIFRWLLLPGKMSGAEFEELAARLGVQVYAAERFVVGNSCPERAVRVSVCAPKTLEELEQGLMILRRLLDDLT”, the “soluble on expression in E. coli” value is reported as “not soluble”. In the case of “MGHHHHHHSHMRPDCDGWLLLRKAPGGFMGPRWRRRWFVLKGHTLYWYRQPQDEKAEGLINVSNYSLESGHDQKKKYVFQLTHDVYKPFIFAADTLTDLSMWVRHLITCIS”, the “soluble on expression in E. coli” value is reported as “not soluble”. In the case of “GAMEKFKTLLYDIPIECMEVSEEIISYAKLQLGKKLNDSIYVSLTDHINFAIQRNQKGLDIKNALLWETKRLYKDEFAIGKEALVMVKNKTGVSLPEDEAGFIALHIVNAELNEEMPNIINITKVMEEILSIVKYHFKIEFNEESLHYYRFVTDLKFFAQRLFNGTHMESEDDFLLDTVKEKYHRAYECTKKIQTYIEREYEHKLTSDELLYLTIDIERVVKQA”, the “soluble on expression in E. coli” value is reported as “soluble”. With “MGSDKIHHHHHHMKGIDVSSYQGTIAWGKVKWAGVQFAILKIIRKDLNPDKTFEQNWQGCTEAGMPIQGVYNYSYATTTEKAKTDAKRVIEVLAGRKTFVWLDVEDRCQQGLGQTLIDIINTYQSEIKTAGLEFGVYTGLSFYNTYILPYANQINCPFWIARYPSTKGMTIGDDPNDAKKPAIAHSLYGWQYTSAFTCSGLNNSTDANLLYVELGTKDTTAASQPVSAPVKPNNESWKGDIDYYLESEEVRKWQHAMNVGFDLKGADALKEDGKFGADSQAFAKSHNLWNGQKHYCPTAIKWLRRTLHDVYSFTKLDTDYKEWSDYLSKCVMVFQKNRGLTQDARVGLLTTYRLLKG” the “soluble on expression in E. coli” value was “not soluble”. In the case of “MGMSSLRDLGLSEYEARAYRSLLETGPTTAKELSRASDVPMGRIYDVLNSLETYNLVRSQTASRPKKYVAVEPDTALDRLLEDKKRELQEKVGQYEEIVDDLSSQLESADPVEEPFWTAAVGPDNSLDLLLERLAAADDEIIMVGSAPARQVDILSGTERIVDELEAALERGVEVSLLVRPDLFESLPEEANREYYERLFHYDNYSARASPNIRTTFELLDGVEVCIEVPHPLGREETFGVIDMKDSDFTADISQAFEEHWAEAKPVGPP”, the “soluble on expression in E. coli” value is reported as “not soluble”. For “MPEDVKNFYLMTNGFHMTWSVKLDEHIIPLGSMAINSISKLTQLTQSSMYSLPNAPTLADLEDDTHEASDDQPEKPHFDSRSVIFELDSCNGSGKVCLVYKSGKPALAEDTEIWFLDRALYWHFLTDTFTAYYRLLITHLGLPQWQYAFTSYGISPQAKVREEHLPL”, the “soluble on expression in E. coli” value was “not soluble”. For “MEDYANISKGKEKFFPHCFYGRCCARRMLCDANVFPYALPVEANSLKEQAPCLKDEECDLFPDFLGTCVHHQNVTNILENRRFKYFPTNNNVKPKGYGMCCYSKKSSICSTGGTPFEVELSDGPCSNHIDCNPDELPFKWNAYCSQNAKSNMCCRDTLVDSLCPDGFTPYRTQQKCEGYHPLSKSSGKCPKSNGMCHRGHCCPRLTIDEARKATPYHLNYVTDTQCDPTEPLDFVYRWAFCDEIEEKIVVMGDRNADGTELNWQQSRCTINR”, the “soluble on expression in E. coli” value was “not soluble”. For “MVQREKARDNFEGGCLAELIGSPRDWKCFLAVPDPLLGVQHWLHLWRPQTKDGNSLHRHGDQAWGKHRRQNSLKSPALSGHSIDYHFYPRLRCGMLIGPDKQAVASGLEVLVTSSTKILGQLFPDAAHFLEEASEFKAE”, the “soluble on expression in E. coli” value was “soluble”. With “MGSDKIHHHHHHMVKYSGVCILFGAGGGGENALSLLKLEGCNISAIVDNDLKKHNTFLDDTPIYAPEKLNCDLIFDKILIASGYSKSILAQLGQYNISQERIIVLPQYYLKPNRFSDQVLYSLAWDFIFSFSELMNKLNIRYWLDYGTLLGLVRDNDLISWDSDLDFCILDENKGYLINSFSVISEHISSTIGCDVKIELIKGAECEHSRVFISCNRDNVILDIDVFIKFNFSNFVCLEVMDRVERYNAEHYVAVDFLNVKGISLPVPNKYDQYLTRVYGSWCVANKEWTLYS” the “soluble on expression in E. coli” value was “not soluble”. For “MTKPAKIGVLLANLGTPDSPTPKSISRYLWQFLTDPRVVDLPRCKWYPLLKAIILPLRSKRIAKNYQAIWTEQGSPLLAISRQQKDALQAYLDNQNIDTQVEIAMTYGNPSMQSAVKNLLKNQVERIIVLPLYPQYSSSTTGAVFDAFANALKEERGLLPFDFIHSYHIDENYINALADSIKVRLKSDEFLLFSYHGIPLRYEKMGDYYREHCKQTTIAVVNKLGLTENQWRMTFQSRFGREEWLQPYTDKFLESAAAQNIQKIAVICPGFSVDCLETIEEIDEENRENFLNNGGQSYQYIPALNVEHAHIEMMGKLILEKLT”, the “soluble on expression in E. coli” value was “not soluble”. With “SGCFGCFSPEVDDDLKPSKPNYHSSDESSGADARRKVAPLATDGGNGYAHSFTFKDLSVATGYFNEANFIGEGGFGKVYKGKINGQMVAVKQLTRDGVQGRNEFLVEVLMLTVLNHPHLVSLVGFCAQGDERLLVYEYMPFGSLESHLFDVPLGKQPLDWNTRMRIAVGVAEGLSYLHNVADPPIIYRDMKAANILLDEDYRPKLSDFGLAKVGPVGDRTHVSTRVMGTYGYCAPDYVVSGKLTMKSDIYSFGVLLLELITGRRIYDASRPKPEQSLLTWSRPFLHDKRKFYRLADPALHGCYPTSALNQLVVISIMCLQDQPHVRPIISDVVIGLNHVASQPYVPERSSVSLSSPARCGSPQYAGTPSRRRGGRRVAQYA” the “soluble on expression in E. coli” value was “soluble”. For “MAHHHHHHMPPLRGAGRGRNKTGTVPTARTNGGFKAKGSVKPRTFDEYYGEIYGARWHTLRTAMMEAPRKVALWNRFSQVPFEEATRGLSRVEPNSLIQAFQPTQTANSTEAVSTADRGINDDDEAKLQGKALAAAADDLLHRNGVIDKPPIDAFGIKAYYLLDYASAHVVEQLQVGAFDTVLDMCAAPGGKSIAVAQFLSPDGALTCNEARADRCARLRRNLQEHVPVNYVPWRTTQRDAQTWYDPGAFSRVLVDAPCSSERHLLQQSGGSPLSLREWSEETTVQLAALQRMLLQRAIETCRVGGRIVYSTCSISPLENDGVVGEVLQRTRCEVKVIKTSPAAAAAAPVALPKTATDAGESDASGAEACAPHTPTVLGEATAYGRLLLPDTCHGWGPMFLCVLEKTAEHKDVSSSSEDDDE”, the “soluble on expression in E. coli” value was “not soluble”. In the case of “MQLNDSTLFRQQAFIDGDWRDARGGDVIPVSNPANGKPLGNVPKMGAEETRDAINAANRALPAWRALTAKERANILRRWFNLMMEHQDDLARLMTLEQGKPLAEAKGEISYAASFIEWFAEEGKRIYGDTIPGHQADKRLLVIKQPIGVTAAITPWNFPSAMITRKAGPALAAGCTMVLKPASQTPFSALALAELAQRAGIPAGVFNVVTGSAGDIGGELTSNPLVRKLSFTGSTEIGRQLMEQCAKDIKKVSLELGGNAPFIVFDDADLDKAVEGALASKFRNAGQTCVCANRLYVQDGVYDRFAEKLNQAVNKLAVGDGLQADVAIGPLIDEKAVAKVQEHIADALEKGARVITGGEAHKLGGNFFQPTILADVPDNAKVAKEETFGPLAPLFRFSDEADVIRQANDTEFGLAAYFYARDLSRVFRVGEALEYGIVGINTGIISNEVAPFGGIKASGLGREGSKYGIEDYLEIKYMCIGL”, the “soluble on expression in E. coli” value is reported as “not soluble”. For “MDSGVEASGYPPVGRAKILLERAVNPIPSPRRELEQYTTPADIAVRIAVDALLRGLLEGALAADLAAGTCRLGLALLLYGASRVAAVEADGRLAGLCLGAAEKLGLGGRIFFVASRVSRRRGPLAAGSVDLVATNPPFGVWRRGADWEVLEYALRLKPRAVYAIVKSGNMGFHAAKAAGLGYSTLLISREHFPIPASMPGHRSRVRRVSVDVVLFTRGG”, the “soluble on expression in E. coli” value was “soluble”. With “MKIAIVGSGNGAVTAAVDMVSKGHDVKLYCRNQSISKFQNAIEKGGFDFNNEGDERFVKFTDISDDMEYVLKDAEIVQVIIPSSYIEYYADVMAEHVTDNQLIFFNMAAAMGSIRFMNVLEDRHIETKPQLAEANTLTYGTRVDFENAAVDLSLNVRRIFFSTYDRSCLNDCYDKVSSIYDHLVKEESLIKTNLENGNPEVHPGPTLLNVGRIDYAGEFALYKEGITKHTVRLLHAIELERLNLGRRLGFELSTAKESRIERGYLERDKEDEPLNRLFNTSPVFSQIPGPNHVESRYLTEDIAYGLVLWSSLGRVIDVPTPNIDAVIVIASTILERDFFEEGLTVEEIGLDKLDLEKYLK” the “soluble on expression in E. coli” value was “not soluble”. With “MGILETLVLKEKINGTEKAVIFRELIKKEMELLNDYCAKNHLFPKDYRIEFCHLHNIKKVNIARLLTILKYYDPRFIEILMSTDPKVRTFIQYFMEFLEKHPYFEDVLEPQNLFGNWDYIRYKLKILFPQLTFEEIDRFKFKRKEFINYVKEKLGEPEELIEDKLNLATWYESVPYLELESEMTPGVHPDPVMTPEEWSFIKRHIKGRKNIIIRDPDTGKEKLVYVEVDIPDEELDKYYKNREGLKKLLMERYNIDESGAEQILRKAGWEATGWHIVPPVHTDVEVVYPEEEKKEEKKVEVKREPFDIMELAKHIRYLGGRELEMLNYYELVHDKVPEIHEKLHMFMRTKRRLLGKLFGIYYTVDPVMAEAILINDPENIELLKSLTISTGLRDKKFSIYDSSKVWNEIKRRVRFIFPEVSEEEIEKFKGKRSEFVTYLAQKLGKPEEYIDERLERAGWLRSEEIPAFIRHVGP” the “soluble on expression in E. coli” value was “not soluble”. In the case of “MGSDKIHHHHHHMTFVKKALSPDEYGEVLFQHDWMRGEPSDVVCELLAKSERLFFRQDDVLFREGDKMQHCLLVETGKLQAFRHTYGGDEKIFGQFERGEFVAIAAVFMDHGRFPMNIRALSDGHTLMIPRQDIHQFCLQRPELALRLLNYLGKKLYSTINQIDWLTSSSAPQRLADYLLRQHHIQQTQHLTLPVSRGQLATSLGMRGETLSRLMSDWKRQGHITYRGHQVELCDLNYLKELAAEARRTF”, the “soluble on expression in E. coli” value is reported as “not soluble”. With “MKKILFDVDGVFLSEERCFDVSALTVYELLMDKCYLGLHSHIDWETLTDNDIQDIRNRIFQKDKILNKLKSLGLNSNWDMLFIVFSIHLIDILKKLSHDEIEAFMYQDEPVELKLQNISTNLADCFNLNEQLPLQFLDNVKVGKNNIYAALEEFATTELHVSDATLFSLKGALWTLAQEVYQEWYLGSKLYEDVEKKIARTTFKTGYIYQEIILRPVDEVKVLLNDLKGAGFELGIATGRPYTETVVPFENLGLLPYFEADFIATASDVLEAENMYPQARPLGKPNPFSYIAALYGNNRDKYESYINKQDNIVNKDDVFIVGDSLADLLSAQKIGATFIGTLTGLKGKDAAGELEAHHADYVINHLGELRGVLDNLLEHHHHHH” the “soluble on expression in E. coli” value was “soluble”. For “MALVFVYGTLKRGQPNHRVLRDGAHGSAAFRARGRTLEPYPLVIAGEHNIPWLLHLPGSGRLVEGEVYAVDERMLRFLDDFESCPALYQRTVLRVQLLEDRAPGAEEPPAPTAVQCFVYSRATFPPEWAQLPHHDSYDSEGPHGLRYNPRENR”, the “soluble on expression in E. coli” value was “soluble”.

— the DeepSol protein solubility set
